Target: T1, human N-acetylated-alpha-linked acidic dipeptidase-like protein 2 (NAALADL2) (human, UniProt Q58DX5 1-795)
T1 construct: also called human NAALADL2 receptor; NAALADL2 polypeptide
T1 sequence: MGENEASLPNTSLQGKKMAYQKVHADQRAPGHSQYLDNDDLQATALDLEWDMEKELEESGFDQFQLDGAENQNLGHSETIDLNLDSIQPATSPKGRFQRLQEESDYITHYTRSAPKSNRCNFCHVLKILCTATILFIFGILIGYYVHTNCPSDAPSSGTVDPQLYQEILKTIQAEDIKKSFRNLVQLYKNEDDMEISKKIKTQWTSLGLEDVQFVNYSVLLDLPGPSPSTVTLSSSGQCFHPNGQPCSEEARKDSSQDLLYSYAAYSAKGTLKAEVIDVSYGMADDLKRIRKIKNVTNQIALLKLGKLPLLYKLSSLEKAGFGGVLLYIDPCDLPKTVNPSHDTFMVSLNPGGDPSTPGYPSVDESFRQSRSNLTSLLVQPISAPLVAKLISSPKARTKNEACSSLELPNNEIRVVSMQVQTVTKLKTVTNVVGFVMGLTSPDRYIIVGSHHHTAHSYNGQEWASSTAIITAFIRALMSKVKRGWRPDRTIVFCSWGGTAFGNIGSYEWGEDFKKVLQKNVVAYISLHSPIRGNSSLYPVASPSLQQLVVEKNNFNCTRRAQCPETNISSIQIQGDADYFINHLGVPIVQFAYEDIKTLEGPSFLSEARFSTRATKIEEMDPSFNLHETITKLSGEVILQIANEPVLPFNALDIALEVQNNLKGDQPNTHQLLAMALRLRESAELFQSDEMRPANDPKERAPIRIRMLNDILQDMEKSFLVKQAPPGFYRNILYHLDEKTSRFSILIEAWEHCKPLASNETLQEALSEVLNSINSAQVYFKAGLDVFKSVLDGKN
Experiment: EGS cross-linking on U87 cells, then reciprocal immunoprecipitation (anti-MTf L235 or anti-NAALADL2 N18+L18) and immunoblot with the complementary antibody
Experimental: Cells were pulsed with 1 μl of 7.1 mg/ml a human melanotransferrin (MTf) peptide ([…]; SEQ ID NO:2) and 4 μl of NTA-Fe, and shaken gently at 4° C. for 20 minutes to allow binding. The supernatant was discarded and the cells were washed 2× with 5 ml of PBS at 4° C. Cross-linker solution (6 ml of 3.7 mM EGS; Thermo Scientific, Cat #87786) was added to each flask, and the cells were shaken gently at 4° C. for 2 hours.
The supernatant was discarded, and 2 ml of RIPA buffer with 1X HALT protease inhibitor cocktail was added to lyse the cells and quench the cross-linker. The cells were shaken vigorously at room temperature for 5 minutes, and a cell scraper was used to lyse and completely detach the cell lysate from the plate.

B1: human melanotransferrin (MTf) peptide (DSSHAFTLDELR; SEQ ID NO:2) (peptide)
peptide: DSSHAFTLDELR
notes: 12-residue fragment of human melanotransferrin (p97); It was pulsed onto U87 cells together with NTA-Fe; also called human MTf peptide; human MTf polypeptide
  binding result: binds

— patent publication US20190022244A1 (BIOASIS TECHNOLOGIES, published 2019)
